B4: ERN1-Tyk2(C)-HA (other)
chain: IFGSTSTVTLPETLLFVSTLDGSLHAVSKRTGSIKWTLKEDPVLQVPTHVEEPAFLPDPNDGSLYTLGSKNNEGLTKLPFTIPELVQASPCRSSDGILYMGKKQDIWYVIDLLTGEKQQTLSSAFADSLCPSTSLLYLGRTEYTITMYDTKTRELRWNATYFDYAASLPEDDVDYKMSHFVSNGDGLVVTVDSESGDVLWIQNYASPVVAFYVWQREGLRKVMHINVAVETLRYLTFMSGEVGRITKWKYPFPKETEAKSKLTPTLYVGKYSTSLYASPSMVHEGVAVVPRGSTLPLLEGPQTDGVTIGDKGECVITPSTDVKFDPGLKSKNKLNYLRNYWLLIGHHETPLSASTKMLERFPNNLPKHRENVIPADSEKKSFEEVINLVDQTSENAPTTVSRDVEEKPAHAPARPEAPVDSMLKDMATIILSTFLLIGWVAFIITYPLSMHQQQQLQHQQFQKELEKIQLLQQQQQQLPFHPPGDTAQDGELLDTSGPYSESSGTSSPSTSPRASNHSLCSGSSASKAGSSPSLEQDDGDEETSVVIVGKISFCPKDVLGHGAEGTIVYRGMFDNRDVAVKRILPECFSFADREVQLLRESDEHPNVIRYFCTEKDRQFQYIAIELCAATLQEYVEQKDFAHLGLEPITLLQQTTSGLAHLHSLNIVHRDLKPHNILISMPNAHGKIKAMISDFGLCKKLAVGRHSFSRRSGVPGTEGWIAPEMLSEDCKENPTYTVDIFSAGCVFYYVISEGSHPFGKSLQRQANILLGACSLDCLHPEKHEDVIARELIEKMIAMDPQKRPSAKHVLKHPFFWSLEKQLQFFQDVSDRIEKESLDGPIVKQLERGGRAVVKMDWRENITVPLQTDLRKFRTYKGGSVRDLLRAMRNKKHHYRELPAEVRETLGSLPDDFVCYFTSRFPHLLAHTYRAMELCSHERLFQPYYFHEPPEPQPPVTPDALAAAGGSITQLSHLGQGTRTNVYEGRLRVEGSGDPEEGKMDDEDPLVPGRDRGQELRVVLKVLDPSHHDIALAFYETASLMSQVSHTHLAFVHGVCVRGPENSMVTEYVEHGPLDVWLRRERGHVPMAWKMVVAQQLASALSYLENKNLVHGNVCGRNILLARLGLAEGTSPFIKLSDPGVGLGALSREERVERIPWLAPECLPGGANSLSTAMDKWGFGATLLEICFDGEAPLQSRSPSEKEHFYQRQHRLPEPSCPQLATLTSQCLTYEPTQRPSFRTILRDLTRVQPHNLADVLTVNRDSPAVGPTTFHKRYLKKIRDLGEGHFGKVSLYCYDPTNDGTGEMVAVKALKADCGPQHRSGWKQEIDILRTLYHEHIIKYKGCCEDQGEKSLQLVMEYVPLGSLRDYLPRHSIGLAQLLLFAQQICEGMAYLHAHDYIHRDLAARNVLLDNDRLVKIGDFGLAKAVPEGHEYYRVREDGDSPVFWYAPECLKEYKFYYASDVWSFGVTLYELLTHCDSSQSPPTKFLELIGIAQGQMTVLRLTELLERGERLPRPDKCPCEVYHLMKNCWETEASFRPTFENLIPILKTVHEKYQGQAPSVFSVCLEYPYDVPDYA
notes: Fusion protein expressed in transfected HEK293-T cells; also called ERN1-Tyk2-HA; ERN1-Tyk2(C) fusion construct

Assays:
ERN1(K599A)-Tyk2(C)-HA = molecular target: T1, ERN1(K599A)-Tyk2(C)-HA (human); test: luciferase reporter interaction assay in HEK293-T cells, vehicle or 1 µg/ml tunicamycin
T1 construct: also called pcDNA5/FRT/TO-ERN1(K599A)-Tyk2(C)-HA
Experimental: (§1) After transfection, cells were either vehicle (DMSO) treated or treated with 1 μg/ml tunicamycin (final concentration).

ERN1(D123P)-Tyk2(C)-HA = molecular target: T2, ERN1(D123P)-Tyk2(C)-HA (human); test: as above
T2 construct: Mutation in the luminal domain of ERN1; also called pcDNA5/FRT/TO-ERN1(D123P)-Tyk2(C)-HA; ERN1(D123P)-Tyk2(K)-HA
Experimental: as §1

HA-Tyk2(C)-RTp66 = molecular target: T3, HA-Tyk2(C)-RTp66 (HIV-1); test: luciferase reporter interaction assay in HEK293-T cells
T3 construct: also called pSVSport-HA-Tyk2(C)-RTp66; RTp66 kinase fusion construct

HA-Tyk2(C)-SERT = molecular target: T4, HA-Tyk2(C)-SERT (human); test: as above
T4 construct: Fusion protein expressed in transfected HEK293-T cells; also called pSVSport-HA-Tyk2(C)-SERT; SERT kinase fusion construct

ERN1-Tyk2(C)-HA = molecular target: B4; test: luciferase reporter interaction assay in HEK293-T cells, tunicamycin 0-0.04-0.2-1-5 µg/ml
Experimental: After transfection, cells were treated with 0-0.04-0.2-1-5 μg/ml tunicamycin, final concentration. The luciferase data are presented as fold induction relative to the signal obtained in cells transfected with unfused gp130 (empty prey; transfection a) and treated with the same concentration tunicamycin. Expression of the different fusion proteins was confirmed using Western blot.

[1] = molecular target: T5, unfused gp130 receptor fragment (pMG1) (human, UniProt P40189 760-918); test: luciferase reporter interaction assay in HEK293-T cells, tunicamycin 0-0.5-1-2 µg/ml
T5 construct: Negative control prey; also called empty prey
T5 sequence: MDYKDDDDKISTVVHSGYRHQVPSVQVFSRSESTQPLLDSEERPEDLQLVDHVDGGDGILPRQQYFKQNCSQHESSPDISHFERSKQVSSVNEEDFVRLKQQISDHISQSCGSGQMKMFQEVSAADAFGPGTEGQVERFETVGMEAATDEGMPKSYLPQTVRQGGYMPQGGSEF
Experimental: In a first experiment, cells were transfected with the following combinations of plasmids (500 ng of the kinase fusion construct, 100 ng of the gp130 fusion construct and 50 ng of the luciferase reporter construct) according to the methods described above:
After transfection, cells were treated with 0-0.5-1-2 μg/ml tunicamycin, final concentration.

B1: flag tag-ERN1-gp130 (other)
chain: IFGSTSTVTLPETLLFVSTLDGSLHAVSKRTGSIKWTLKEDPVLQVPTHVEEPAFLPDPNDGSLYTLGSKNNEGLTKLPFTIPELVQASPCRSSDGILYMGKKQDIWYVIDLLTGEKQQTLSSAFADSLCPSTSLLYLGRTEYTITMYDTKTRELRWNATYFDYAASLPEDDVDYKMSHFVSNGDGLVVTVDSESGDVLWIQNYASPVVAFYVWQREGLRKVMHINVAVETLRYLTFMSGEVGRITKWKYPFPKETEAKSKLTPTLYVGKYSTSLYASPSMVHEGVAVVPRGSTLPLLEGPQTDGVTIGDKGECVITPSTDVKFDPGLKSKNKLNYLRNYWLLIGHHETPLSASTKMLERFPNNLPKHRENVIPADSEKKSFEEVINLVDQTSENAPTTVSRDVEEKPAHAPARPEAPVDSMLKDMATIILSTFLLIGWVAFIITYPLSMHQQQQLQHQQFQKELEKIQLLQQQQQQLPFHPPGDTAQDGELLDTSGPYSESSGTSSPSTSPRASNHSLCSGSSASKAGSSPSLEQDDGDEETSVVIVGKISFCPKDVLGHGAEGTIVYRGMFDNRDVAVKRILPECFSFADREVQLLRESDEHPNVIRYFCTEKDRQFQYIAIELCAATLQEYVEQKDFAHLGLEPITLLQQTTSGLAHLHSLNIVHRDLKPHNILISMPNAHGKIKAMISDFGLCKKLAVGRHSFSRRSGVPGTEGWIAPEMLSEDCKENPTYTVDIFSAGCVFYYVISEGSHPFGKSLQRQANILLGACSLDCLHPEKHEDVIARELIEKMIAMDPQKRPSAKHVLKHPFFWSLEKQLQFFQDVSDRIEKESLDGPIVKQLERGGRAVVKMDWRENITVPLQTDLRKFRTYKGGSVRDLLRAMRNKKHHYRELPAEVRETLGSLPDDFVCYFTSRFPHLLAHTYRAMELCSHERLFQPYYFHEPPEPQPPVTPDALSRGSGGSGGSTVVHSGYRHQVPSVQVFSRSESTQPLLDSEERPEDLQLVDHVDGGDGILPRQQYFKQNCSQHESSPDISHFERSKQVSSVNEEDFVRLKQQISDHISQSCGSGQMKMFQEVSAADAFGPGTEGQVERFETVGMEAATDEGMPKSYLPQTVRQGGYMPQGGSELSTSLYKKAGYLPQTVRQGGYMPQ
notes: Fusion protein expressed in transfected HEK293-T cells; also called ERN1-gp130 fusion construct; pMG2C-ERN1
binding result (ERN1(K599A)-Tyk2(C)-HA): no binding | binding result (ERN1(D123P)-Tyk2(C)-HA): no binding

B2: flag tag-gp130-VAMP1 (other)
chain: MDYKDDDDKISTVVHSGYRHQVPSVQVFSRSESTQPLLDSEERPEDLQLVDHVDGGDGILPRQQYFKQNCSQHESSPDISHFERSKQVSSVNEEDFVRLKQQISDHISQSCGSGQMKMFQEVSAADAFGPGTEGQVERFETVGMEAATDEGMPKSYLPQTVRQGGYMPQGGSELSTSLYKKVGMSAPAQPPAEGTEGTAPGGGPPGPPPNMTSNRRLQQTQAQVEEVVDIIRVNVDKVLERDQKLSELDDRADALQAGASQFESSAAKLKRKYWWKNCKMMIMLGAICAIIVVVIVSKYRCPTFLYKVV
notes: also called pMG1-VAMP1; VAMP1 gp130 fusion construct
binding result (HA-Tyk2(C)-RTp66): no binding | binding result (HA-Tyk2(C)-SERT): binds

B3: flag-tag-ERN1cyt-gp130 (other)
chain: MDYKDDDDKISEFFCPKDVLGHGAEGTIVYRGMFDNRDVAVKRILPECFSFADREVQLLRESDEHPNVIRYFCTEKDRQFQYIAIELCAATLQEYVEQKDFAHLGLEPITLLQQTTSGLAHLHSLNIVHRDLKPHNILISMPNAHGKIKAMISDFGLCKKLAVGRHSFSRRSGVPGTEGWIAPEMLSEDCKENPTYTVDIFSAGCVFYYVISEGSHPFGKSLQRQANILLGACSLDCLHPEKHEDVIARELIEKMIAMDPQKRPSAKHVLKHPFFWSLEKQLQFFQDVSDRIEKESLDGPIVKQLERGGRAVVKMDWRENITVPLQTDLRKFRTYKGGSVRDLLRAMRNKKHHYRELPAEVRETLGSLPDDFVCYFTSRFPHLLAHTYRAMELCSHERLFQPYYFHEPPEPQPPVTPDALPSRGSGGSGGSTVVHSGYRHQVPSVQVFSRSESTQPLLDSEERPEDLQLVDHVDGGDGILPRQQYFKQNCSQHESSPDISHFERSKQVSSVNEEDFVRLKQQISDHISQSCGSGQMKMFQEVSAADAFGPGTEGQVERFETVGMEAATDEGMPKSYLPQTVRQGGYMPQGGSELSTSLYKKAGYLPQTVRQGGYMPQ
notes: also called pMG2C-ERN1cyt; gp130 fusion containing only the cytoplasmic portion of ERN1
binding result (ERN1-Tyk2(C)-HA): no binding

B4
binding result [1]: no binding

— patent US20190330310A1 (VIB VZW, published 2019)
